Source: patent publication US9091696B2, “Modulation of NR2F6 and methods and uses thereof” (Regen Biopharma, Inc., priority 2008, dated 2015)
Numbering of substitutions follows the chain as printed.

How the values were obtained:
U937 GFP cells = test: Cell cycle analysis by propidium iodide DNA content after atRA; type: cell-based, human; details: control U937 GFP cells; FIG. 3B
Description: Differentiation was induced in the U937 cell line by treatment with 10 nM TPA (Sigma), 1 uM ATRA (Sigma), or 1.25% v/v DMSO (Sigma) respectively. Immunostaining for the maturation marker CD11b (eBioscience) was performed for twenty minutes in the dark according to manufacturer's instructions and cells were analysed by flow cytometry. Nitroblue tetrazolium (NBT) reduction test (Sigma) was performed according to the manufacturer's instructions, with a minimum of 300 cells scored per slide in three different fields of view. Each experimental timepoint was conducted in triplicate.
Overexpression of NR2F6 is able to override the growth arrest associated with differentiation and maturation, in particular maturation and differentiation induced by all-trans retinoic acid (FIG. 3). […] Growth of U937 cells expressing either GFP of NR2F6-IRES-GFP was monitored by counting using trypan blue following treatment of cells with atRA (FIG. 3A). U937 cells expressing either GFP of NR2F6-IRES-GFP were treated with atRA. DNA content was assessed using propidium iodide in order to determine which phase of the cell cycle the cells in each respective population resided in (FIG. 3B).

32Dcl3-NR2F6 cells = test: G-CSF induced differentiation of NR2F6 over-expressing cells after HDAC inhibitor pretreatment (cell surface CD11b); type: cell-based, mouse; details: pretreatment prior to G-CSF; non-treated 32Dcl3-NR2F6 cells failed to differentiate; FIG. 32
Text: It has been reported that NR2F6 exerts its regulatory effects primarily as a transcriptional repressor (Liu, X., Huang, X., and Sigmund, C. D. (2003). Identification of a nuclear orphan receptor (Ear2) as a negative regulator of renin gene transcription. Circ Res 92, 1033-1040.). The repressor activity of nuclear receptors is mediated by recruitment of corepressors with histone deacetylase (HDAC) activity; we therefore evaluated the importance of this mechanism in the effects of NR2F6 on haematopoiesis and evaluated weather the activity of NR2F6 can be modulated with an HDAC inhibitor. 32Dcl3-NR2F6 cells were incubated with the non-specific histone deacetylase inhibitor sodium butyrate prior to treatment with G-CSF.

[1] = test system: 32Dcl3 mouse hematopoietic cells; test: shRNA knock down of NR2F6, differentiation by cytospins and flow cytometry; type: cell-based; details: vs pSiren universal negative control, FIG. 26
Description: Knock down of NR2F6 using short-hairpin RNAs induces differentiation and maturation of 32Dcl3 mouse hematopoietic cells (FIG. 26).
(§1) Oligonucleotides targeting human or mouse EAR-2 were synthesized (Sigma), annealed and cloned into the pSiren vector (Clontech), after which sequence was verified (The Centre for Applied Genomics, Toronto). Virus was prepared by transient transfection of plasmid in the 293GPG cell line as described above. Knockdown was confirmed by western blot for these vectors in cell lines and by qPCR in bone marrow cells (data not shown and (17)).

Murine bone marrow cells = test: shRNA knock down of NR2F6 in ex vivo bone marrow suspension culture (flow cytometry, morphology); type: cell-based, mouse
Description: Murine bone marrow cells were cultured in conditions that preserved stem cell maintenance (c-kit ligand; thrombopoietin; and Flt3 ligand in OP9 conditioned medium) and transduced with either an shRNA targeting NR2F6 or a scrambled control shRNA. Following seven days in culture cells were analysed by flow cytometry.

bone marrow cells = test: Methylcellulose colony formation and replating after silencing of EAR-2 (NR2F6); type: cell-based, mouse; details: cytokines promoting multilineage or erythroid progenitor differentiation; FIG. 58
Description: We assessed the effects of silencing of EAR-2 expression on colony formation in vitro. […] In replating experiments we observed a significant decrease in secondary colonies in cells in which EAR-2 expression was silenced FIG. 59.
• The 293GPG retroviral packaging cell line (a gift of Richard Mulligan, Harvard University) was grown in DMEM medium supplemented with 10% FBS, tetracycline ([…]), G418 (0.3 mg/mL) and puromycin ([…]). Human EAR-2 cDNA (a kind gift from John Ladias, Harvard University) or Mus EAR-2 cDNA (a kind gift from, Curt D. Sigmund, University of Iowa) was subcloned into the pcDNA3.1V5/HIS vector (Invitrogen). […] Real time PCR was performed according to manufacturer's instructions using SYBR Green Master Mix (Applied Biosystems, Foster City, Calif.) and analyzed using the delta-delta CT method (16). Bone Marrow Transduction • Using the retroviral constructs described above, we forced expression of EAR-2 in primary murine BM cells and monitored the effects on differentiation using colony assays. […] Forty-eight hours after retroviral infection GFP-positive cells were collected by fluorescence activated cell sorting (FACS). […] GFP-positive cells were purified by fluorescence activated cell sorting (FACS) and cultured in methylcellulose medium containing hematopoietic growth factors that favored multilineage differentiation. […]

[2] = test system: U937 human myelomonocytic leukemia cells; test: shRNA knock down of NR2F6, differentiation by cytospins and flow cytometry; type: cell-based; details: vs pSiren universal negative control, FIG. 27
Description: Knock down of NR2F6 using short-hairpin RNAs induces terminal differentiation, blood cell maturation death of U937 human leukemia cells (FIG. 27).
as §1

Molecule: CC1=C(/C=C/C(C)=C/C=C/C(C)=C/C(=O)O)C(C)(C)CCC1 [atRA, all-trans retinoic acid]
- number of cells in S/G2/M phases of the cell cycle (U937 GFP cells): drastic decrease in the number of cells in S/G2/M phases

Molecule: CCCC(=O)[O-].[Na+] [sodium butyrate]
- G-CSF induced differentiation (cell surface CD11b expression) (32Dcl3-NR2F6 cells): showed recovery of G-CSF induced differentiation

B1: Mus shNR2F6: short-hairpin RNA targeting mouse NR2F6, SEQ ID NO: 5, cloned into the pSiren vector (nucleic acid)
DNA: GATCCGCATTACGGCGTGTTCACCTTCAAGAGAGGTGAACACGCCGTAATGCTTTTTTCTAGAG
- myeloid cell differentiation [1]: induces spontaneous myeloid cell differentiation
- differentiation and maturation of bone marrow cells into neutrophils (Murine bone marrow cells; flow cytometry (FIG. 30) and morphology (FIG. 31)): promoted the differentiation and maturation of bone marrow cells into neutrophils
- number of immature cells (devoid of markers of lineage commitment) (Murine bone marrow cells; seven days in culture, vs scrambled shRNA control, flow cytometry, FIG. 28): dramatically reduced the number of immature cells
- number of stem cells (ckit+Sca-1+lineage-, KSL cells) (Murine bone marrow cells; seven days in culture, vs scrambled shRNA control, flow cytometry, FIG. 29): dramatically reduced
- colony size in methylcellulose (bone marrow cells): increase in the size of colonies

B2: Human shNR2F6: short-hairpin RNA targeting human NR2F6, SEQ ID NO: 6, cloned into the pSiren vector (nucleic acid)
DNA: B1 DNA with C15T, G18C, C40G, G43A
- myeloid cell differentiation [2]: induces spontaneous myeloid cell differentiation
